B1: SOAT1 (parent)
chain: VYYIFERLCAPLFRNIKQEPFSAR

These results are taken from the supplement of paper PMC10567573.
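Also: lentivirally expressed fusions sorted by FACS into six bins by GFP to DsRed ratio, PSI derived from sequencing read proportions per bin multiplied by bin number.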

The series covers variants of B1. As to the kind of experiment: protein stability index of a GFP-peptide fusion (GPS, HEK-293T) (PSI 1-6); higher = more stable. The settings on record: c terminus: a fixed tail appended.
With VYYIFERLCAPLFRNWKQEPFSAR [I16W], the protein stability index came out at 3.96.
Consider VYAIFERLCAPLFRNIKQEPFSAR [Y3A], for which the protein stability index came to 2.26.
For VYVIFERLCAPLFRNIKQEPFSAR [Y3V], the protein stability index turned out to be 3.21.
In the case of VYIIFERLCAPLFRNIKQEPFSAR [Y3I], the protein stability index stood at 3.
Then VYEIFERLCAPLFRNIKQEPFSAR [Y3E], with 1.5.
VYWIFERLCAPLFRNIKQEPFSAR [Y3W]: the protein stability index was 2.93.
As for VYSIFERLCAPLFRNIKQEPFSAR [Y3S], the protein stability index came to 3.46.
With VYHIFERLCAPLFRNIKQEPFSAR [Y3H], the protein stability index stood at 1.71.
Consider VYDIFERLCAPLFRNIKQEPFSAR [Y3D], for which the protein stability index stood at 1.45.
On to VYPIFERLCAPLFRNIKQEPFSAR [Y3P], for which the protein stability index worked out at 2.12.
For VYNIFERLCAPLFRNIKQEPFSAR [Y3N], the protein stability index came to 2.11.
Consider VYQIFERLCAPLFRNIKQEPFSAR [Y3Q], for which the protein stability index stood at 3.86.
VYKIFERLCAPLFRNIKQEPFSAR [Y3K]: the protein stability index is 2.5.
Then VYCIFERLCAPLFRNIKQEPFSAR [Y3C], with 3.23.
VYMIFERLCAPLFRNIKQEPFSAR [Y3M]: the protein stability index turned out to be 1.77.
Take VYGIFERLCAPLFRNIKQEPFSAR [Y3G]: the protein stability index is 1.22.
Regarding VYFIFERLCAPLFRNIKQEPFSAR [Y3F], the protein stability index came to 2.75.
Consider VYYIFKRLCAPLFRNIKQEPFSAR [E6K], for which the protein stability index turned out to be 2.23.
In the case of VYYIFARLCAPLFRNIKQEPFSAR [E6A], the protein stability index is 2.38.
For the variant VYYIFWRLCAPLFRNIKQEPFSAR [E6W], the protein stability index was 2.59.
Next, VYYIFNRLCAPLFRNIKQEPFSAR [E6N]: 2.65; VYYIFMRLCAPLFRNIKQEPFSAR [E6M]: 2.41; VYYIFDRLCAPLFRNIKQEPFSAR [E6D]: 3.
Regarding VYYIFPRLCAPLFRNIKQEPFSAR [E6P], the protein stability index worked out at 1.83.
Next, VYYIFFRLCAPLFRNIKQEPFSAR [E6F]: 3.18; VYYIFRRLCAPLFRNIKQEPFSAR [E6R]: 2.09; VYYIFYRLCAPLFRNIKQEPFSAR [E6Y]: 2.53.
For the variant VYYIFLRLCAPLFRNIKQEPFSAR [E6L], the protein stability index is 4.01.
On to VYYIFCRLCAPLFRNIKQEPFSAR [E6C], for which the protein stability index came to 3.08.
On to VYYIFTRLCAPLFRNIKQEPFSAR [E6T], for which the protein stability index came out at 2.61.
Turning to VYYPFERLCAPLFRNIKQEPFSAR [I4P], the protein stability index was determined as 1.64.
VYYEFERLCAPLFRNIKQEPFSAR [I4E]: the protein stability index amounted to 1.82.
For VYYYFERLCAPLFRNIKQEPFSAR [I4Y], the protein stability index was found to be 2.11.
Next, VYYKFERLCAPLFRNIKQEPFSAR [I4K]: 2.81; VYYWFERLCAPLFRNIKQEPFSAR [I4W]: 1.94.
Next, VYYMFERLCAPLFRNIKQEPFSAR [I4M]: 3.78.
Next, VYYGFERLCAPLFRNIKQEPFSAR [I4G]: 1.71.
VYYDFERLCAPLFRNIKQEPFSAR [I4D]: the protein stability index was 1.55.
For VYYRFERLCAPLFRNIKQEPFSAR [I4R], the protein stability index is 3.07.
VYYLFERLCAPLFRNIKQEPFSAR [I4L]: the protein stability index is 2.64.
For the variant VYYSFERLCAPLFRNIKQEPFSAR [I4S], the protein stability index was found to be 2.12.
With VYYQFERLCAPLFRNIKQEPFSAR [I4Q], the protein stability index is 2.65.
For the variant VYYIFERLCAPYFRNIKQEPFSAR [L12Y], the protein stability index turned out to be 2.16.
As to VYYIFERLCAPKFRNIKQEPFSAR [L12K], the protein stability index amounted to 2.57.
Next, VYYIFERLCAPPFRNIKQEPFSAR [L12P]: 5.2.
Take VYYIFERLCAPGFRNIKQEPFSAR [L12G]: the protein stability index is 2.59.
For the variant VYYIFERLCAPHFRNIKQEPFSAR [L12H], the protein stability index was 3.56.
As for VYYIFERLCAPEFRNIKQEPFSAR [L12E], the protein stability index amounted to 2.07.
For VYYIFERLCAPMFRNIKQEPFSAR [L12M], the protein stability index is 2.71.
For the variant VYYIFERLCAPIFRNIKQEPFSAR [L12I], the protein stability index was 3.19.
For the variant VYYIFERLCAPTFRNIKQEPFSAR [L12T], the protein stability index was determined as 1.97.
As for VYYIFERLCAPCFRNIKQEPFSAR [L12C], the protein stability index stood at 2.21.
With VYYIFERLCAPNFRNIKQEPFSAR [L12N], the protein stability index amounted to 1.98.
Turning to VYYIFERLCAPFFRNIKQEPFSAR [L12F], the protein stability index was 2.5.
As for VYYIFERLWAPLFRNIKQEPFSAR [C9W], the protein stability index was determined as 4.32.
Then VYYIFERLRAPLFRNIKQEPFSAR [C9R], with 3.16.
In the case of VYYIFERLPAPLFRNIKQEPFSAR [C9P], the protein stability index turned out to be 3.02.
Consider VYYIFERLIAPLFRNIKQEPFSAR [C9I], for which the protein stability index came to 1.31.
Take VYYIFERLHAPLFRNIKQEPFSAR [C9H]: the protein stability index came to 2.02.
As for VYYIFERLGAPLFRNIKQEPFSAR [C9G], the protein stability index worked out at 3.15.
With VYYIFERLFAPLFRNIKQEPFSAR [C9F], the protein stability index stood at 1.95.
With VYYIFERLSAPLFRNIKQEPFSAR [C9S], the protein stability index stood at 2.34.
Next, VYYIFERLTAPLFRNIKQEPFSAR [C9T]: 2.26; VYYIFERLNAPLFRNIKQEPFSAR [C9N]: 1.04.
With VYYIFERLLAPLFRNIKQEPFSAR [C9L], the protein stability index came to 1.67.
In the case of VYYIFERLKAPLFRNIKQEPFSAR [C9K], the protein stability index was 1.6.
As for VYYIFERLCAPLNRNIKQEPFSAR [F13N], the protein stability index stood at 3.57.
On to VYYIFERLCAPLPRNIKQEPFSAR [F13P], for which the protein stability index is 3.2.
Next, VYYIFERLCAPLSRNIKQEPFSAR [F13S]: 2.09; VYYIFERLCAPLIRNIKQEPFSAR [F13I]: 2.64; VYYIFERLCAPLHRNIKQEPFSAR [F13H]: 2.
Then VYYIFERLCAPLTRNIKQEPFSAR [F13T], with 4.31; and VYYIFERLCAPLARNIKQEPFSAR [F13A], with 1.96; and VYYIFERLCAPLRRNIKQEPFSAR [F13R], with 4.31.
Regarding VYYIFERDCAPLFRNIKQEPFSAR [L8D], the protein stability index amounted to 3.16.
Take VYYIFERICAPLFRNIKQEPFSAR [L8I]: the protein stability index came to 1.62.
As to VYYIFERTCAPLFRNIKQEPFSAR [L8T], the protein stability index turned out to be 2.
As for VYYIFERCCAPLFRNIKQEPFSAR [L8C], the protein stability index amounted to 1.64.
Consider VYYIFERRCAPLFRNIKQEPFSAR [L8R], for which the protein stability index was 2.86.
Take VYYIFERPCAPLFRNIKQEPFSAR [L8P]: the protein stability index turned out to be 2.29.
VYYIFERKCAPLFRNIKQEPFSAR [L8K]: the protein stability index was determined as 3.25.
Then VYYIFERECAPLFRNIKQEPFSAR [L8E], with 3.97; and VYYIFERLCAPLFYNIKQEPFSAR [R14Y], with 1.87.
In the case of VYYIFERLCAPLFPNIKQEPFSAR [R14P], the protein stability index came out at 2.33.
VYYIFERLCAPLFENIKQEPFSAR [R14E]: the protein stability index worked out at 1.5.
As to VYYIFERLCAPLFINIKQEPFSAR [R14I], the protein stability index came to 2.04.
Then VYYIFERLCAPLFDNIKQEPFSAR [R14D], with 3.52.
Next, VYYIFERLCAPLFTNIKQEPFSAR [R14T]: 3.18; VYYIFERLCAPLFNNIKQEPFSAR [R14N]: 2.44; VYYIFERLCAPLFKNIKQEPFSAR [R14K]: 2.46.
Then VYYIFERLCAPLFANIKQEPFSAR [R14A], with 3.64.
VYYIFERLCAPLFCNIKQEPFSAR [R14C]: the protein stability index turned out to be 2.71.
Turning to VYYIFERLCAPLFQNIKQEPFSAR [R14Q], the protein stability index amounted to 3.82.
Then VYYIFERLCAPLFFNIKQEPFSAR [R14F], with 2.56.
